# Reference: US11278600B2, “Human alpha-galactosidase variants” (Codexis, Inc., priority 2014, dated 2022)
# Legend:
# Type in all cases: biochemical
# [1] = HTP-analysis of supernatants pretreated with base (MUGal hydrolysis); conditions: challenge at pH 7.1; activity of the variant/activity of WT GLA (SEQ ID NO: 5); yeast supernatant
# In short: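 Fluorescence of released 4-MU (Ex 355 nm, Em 448 nm) after carbonate quench reports MUGal hydrolysis by GLA variants secreted from INVSc1 yeast. Before the acidic (pH 4.3-4.8) 30-180 min reaction at 37° C, supernatants had been pre-incubated at pH 7.0-9.7 for 1-18 h at 37° C.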
# [2] = HTP-analysis of yeast culture supernatants, no challenge (MUGal hydrolysis); conditions: activity of the variant/activity of WT GLA (SEQ ID NO: 5), yeast supernatant
# In short: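 Activity read as 4-methylumbelliferyl α-D-galactopyranoside hydrolysis: fluorescence (355/448 nm) after sodium carbonate stop, following 30-180 min at 37° C with 2 mM MUGal stock at pH 4.6–4.8. Enzyme source is unchallenged culture supernatant of INVSc1 yeast expressing GLA variants, grown 66-84 h at 30° C.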
# [3] = HTP-analysis of supernatants pretreated with acid (MUGal hydrolysis); conditions: challenge at pH 4.2; activity of the variant/activity of WT GLA (SEQ ID NO: 5); yeast supernatant
# In short: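 Yeast INVSc1 supernatant, GLA variants; acid challenge: McIlvaine pH 3.3-4.3, 37° C., 1-3 h. Assay: MUGal in McIlvaine pH 4.8 plus citrate pH 4.3, 37° C., 30-180 min, Na2CO3 stop, Ex 355/Em 448 nm.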
Molecule,Relative Activity of GLA Variants After Challenge at pH 7.1 [1],Relative Activity of GLA Variants After No Challenge (NC) [2],Relative Activity of GLA Variants After Challenge at pH 4.2 [3]
"130 (protein, Synthetic Polypeptide sequence of Variant No. 130 of mature Human GLA) LDNGLARTPTMGWLHWERFMCNLDCQEEPDSCISEKLFMEMAELMVSEGWKDAGYEYLCIDDCWMAPQRDSEGRLQADPQRFPHGIRQLANYVHSKGLKLGIYADVGNKTCAGFPGSFGYYDIDAQTFADWGVDLLKFDGCYCDSLENLADGYKHMSLALNRTGRSIVYSCEWPLYMWPFQKPNYTEIRQYCNHWRNFADIDDSWKSIKSILDWTSFNQERIVDVAGPGGWNDPDMLVIGNFGLSWNQQVTQMALWAIMAAPLFMSNDLRHISPQAKALLQDKDVIAINQDPLGKQGYQLRQGDNFEVWERPLSGLAWAVAMINRQEIGGPRSYTIAVASLGKGVACNPACFITQLLPVKRKLGFYEWTSRLRSHINPTGTVLLQLENTMQPSKDLLL",+ (+ = 0.5 to 1.5 relative activity over WT GLA (SEQ ID NO: 5)),+ (+ = 0.5 to 1.5 relative activity over WT GLA (SEQ ID NO: 5)),++ (++ = >1.5 to 2.5 relative activity over WT GLA (SEQ ID NO: 5))
"132 (protein, Synthetic Polypeptide sequence of Variant No. 132 of mature Human GLA) LDNGLARTPTMGWLHWERFMCNLDCQEEPDSCISEKLFYEMAELMVSEGWKDAGYEYLCIDDCWMAPQRDSEGRLQADPQRFPHGIRQLANYVHSKGLKLGIYADVGNKTCAGFPGSFGYYDIDAQTFADWGVDLLKFDGCYCDSLENLADGYKHMSLALNRTGRSIVYSCEWPLYMWPFQKPNYTEIRQYCNHWRNFADIDDSWKSIKSILDWTSFNQERIVDVAGPGGWNDPDMLVIGNFGLSWNQQVTQMALWAIMAAPLFMSNDLRHISPQAKALLQDKDVIAINQDPLGKQGYQLRQGDNFEVWERPLSGLAWAVAMINRQEIGGPRSYTIAVASLGKGVACNPACFITQLLPVKRKLGFYEWTSRLRSHINPTGTVLLQLENTMQMSKDLLL",+ (+ = 0.5 to 1.5 relative activity over WT GLA (SEQ ID NO: 5)),+ (+ = 0.5 to 1.5 relative activity over WT GLA (SEQ ID NO: 5)),+ (+ = 0.5 to 1.5 relative activity over WT GLA (SEQ ID NO: 5))
"134 (protein, Synthetic Polypeptide sequence of Variant No. 134 of mature Human GLA) LDNGLARTPTMGWLHWERFMCNLDCQEEPDSCISEKLFMEMAELMVSEGWKDAGYEYLCIDDCWMAPQRDSEGRLQADPQRFPHGIRQLAQYVHSKGLKLGIYADVGNKTCAGFPGSFGYYDIDAQTFADWGVDLLKFDGCYCDSLENLADGYKHMSLALNRTGRSIVYSCEWPLYMWPFQKPNYTEIRQYCNHWRNFADIDDSWKSIKSILDWTSFNQERIVDVAGPGGWNDPDMLVIGNFGLSWNQQVTQMALWAIMAAPLFMSNDLRHISPQAKALLQDKDVIAINQDPLGKQGYQLRQGDNFEVWERPLSGLAWAVAMINRQEIGGPRSYTIAVASLGKGVACNPACFITQLLPVKRKLGFYEWTSRLRSHINPTGTVLLQLENTMQMSKDLLL",+ (+ = 0.5 to 1.5 relative activity over WT GLA (SEQ ID NO: 5)),+ (+ = 0.5 to 1.5 relative activity over WT GLA (SEQ ID NO: 5)),+ (+ = 0.5 to 1.5 relative activity over WT GLA (SEQ ID NO: 5))
"131 (protein, Synthetic Polypeptide sequence of Variant No. 131 of mature Human GLA) LDNGLARTPTMGWLHWERFMCNLDCQEEPDSCISEKLFMEMAELMVSEGWKDAGYEYLCIDDCWMAPQRDSEGRLQADPQRFPHGIRQLANYVHSKGLKLGIYADVGNKTCAGFPGSFGYYDIDAQTFADWGVDLLKFDGCYCDSLENLADGYKHMSLALNRTGRSIVYSCEWPLYMWPFQKPNYTEIRQYCNHWRNFADIDDSWKSIKSILDWTSFNQERIVDVAGPGGWNDPDMLVIGNFGLSWNQQVTQMALWAIMAAPLFMSNDLRHISPQAKALLQDKDVIAINQDPLGKQGYQLRQGDNFEVWERPLSGLAWAVAMINRQEIGGPRSYTIAVASLGKGVACNPACFITQLLPVKRKLGFYEWTSRLRSHINPTGTVLLQLENTMQSSKDLLL",++ (++ = >1.5 to 2.5 relative activity over WT GLA (SEQ ID NO: 5)),++ (++ = >1.5 to 2.5 relative activity over WT GLA (SEQ ID NO: 5)),+ (+ = 0.5 to 1.5 relative activity over WT GLA (SEQ ID NO: 5))
"36 (protein, Synthetic Polypeptide sequence of Variant No. 36 of mature Human GLA) LDNGLARTPTMGWLHWERFMCNLDCQEEPDSCISEKLFMEMAELMVSEGWKDAGYEYLCIDDCWMAPQRDSEGRLQADPQRFPHGIRQLANYVHSKGLKLGIYADVGNKTCAGFPGSFGYYDIDAQTFADWGVDLLKFDGCYCDSLENLADGYKHMSLALNRTGRSIVYSCEWPLYMWPFQKPNYTEIRQYCNHWRNFADIDDSWKSIKSILDWTSFNQERIVDVAGPGGWNDPDMLVIGNFGLSWNQQVTQMALWAIMAAPLFMSNDLRHISPQAKALLQDKDVIAINQDPLGKQGYQLRQGDNFEVWERPLSGLAWAVAMINRQEIGGPRSYTIAVASLGKGVACNPGCFITQLLPVKRKLGFYEWTSRLRSHINPTGTVLLQLENTMQMSKDLLL",++ (++ = >1.5 to 2.5 relative activity over WT GLA (SEQ ID NO: 5)),+ (+ = 0.5 to 1.5 relative activity over WT GLA (SEQ ID NO: 5)),++ (++ = >1.5 to 2.5 relative activity over WT GLA (SEQ ID NO: 5))
"133 (protein, Synthetic Polypeptide sequence of Variant No. 133 of mature Human GLA) LDNGLARTPTMGWLHWERFMCNLDCQEEPDSCISEKLFMEMAELMVSEGWKDAGYEYLCIDDCWMAPQRDSEGRLQADPQRFPHGIRQLANYVHSKGLKLGIYADVGNKTCAGFPGSFGYYDIDAQTFADWGVDLLKFDGCYCDSLENLADGYKHMSLALNRTGRSIVYSCEWPLYMWPFQKPNYTEIRQYCNHWRNFADIDDSWKSIKSILDWTSFNQERIVDVAGPGGWNDPDMLVIGNFGLSWNQQVTQMALWAIMAAPLFMSNDLRHISPQAKALLQDKDVIAINQDPLGKQGYQLRQGDNFEVWERPLSGLAWAVAMINRQEIGGPRSYTIAVASLGKGVACNPACFITQLLPVKRKLGFYEWTSRLRSHINPTGTVLLQLERTMQMSKDLLL",+ (+ = 0.5 to 1.5 relative activity over WT GLA (SEQ ID NO: 5)),+ (+ = 0.5 to 1.5 relative activity over WT GLA (SEQ ID NO: 5)),+ (+ = 0.5 to 1.5 relative activity over WT GLA (SEQ ID NO: 5))
